Measurements: patent US20110044911A1

Target: receptors for CRF on murine pituitary tumor cell line AtT-20 (murine)
Assay: cell-based or functional assay

Production of c-AMP (nM): 2 fold | fold decrease in Production of c-AMP (nM): 10 fold
Substance: CRF-conjugated dextran-coated and maleimide surface-modified magnetonanoparticles (peptide)
